Experimental data from article PMC9352680, “A comprehensive thermodynamic model for RNA binding by the Saccharomyces cerevisiae Pumilio protein PUF4”.
Where a chain is given by its changes, count along the chain named. In names and notes the source's numbering stands.

T1: PUF4 RNA-binding domain (Saccharomyces cerevisiae, UniProt P25339 537-888)
T1 sequence: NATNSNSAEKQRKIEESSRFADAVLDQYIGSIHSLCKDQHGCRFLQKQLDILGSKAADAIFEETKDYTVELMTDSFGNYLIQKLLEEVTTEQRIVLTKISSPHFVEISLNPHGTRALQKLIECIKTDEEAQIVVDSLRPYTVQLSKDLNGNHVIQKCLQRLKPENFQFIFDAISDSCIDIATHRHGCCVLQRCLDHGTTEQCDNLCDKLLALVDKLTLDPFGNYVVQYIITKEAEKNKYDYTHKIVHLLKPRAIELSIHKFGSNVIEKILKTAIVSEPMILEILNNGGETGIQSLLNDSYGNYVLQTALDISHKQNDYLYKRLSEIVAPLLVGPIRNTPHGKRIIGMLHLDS

B1: Id_ii_S2_P5E.2_K5.1_C5.2_[T-1A]_H5.1_A5.1_F5.1_T5.2_[T11G]_[A12T] (ssRNA)
RNA: UUUGAUUAAUAUGAUAUCGUUCUUUCUCAUGUAUUAUUAGUUUCUUUCUCGAUAUCAUAUUAAUCUUU
B2: Id_ii_S2_P5E.3_K5.2_C5.2_[C-2T]_[T-1C]_H5.2_A5.1_F5.1_T5.2_[T11C]_[A12C] (ssRNA)
RNA: B1 RNA with C28U, A29C, G31A, G40C, U41C
B3: Id_ii_S2_P5E.3_K5.2_C5.2_[C-2G]_[T-1C]_H5.2_A5.1_F5.1_T5.2_[A12T] (ssRNA)
RNA: B1 RNA with C28G, A29C, G31A, G40U
B4: Id_ii_S2_P5E.3_K5.2_C5.2_[C-2T]_[T-1A]_H5.2_A5.1_F5.1_T5.2_[T11G]_[A12C] (ssRNA)
RNA: B1 RNA with C28U, G31A, U41C
B5: Id_ii_S2_P5E.3_K5.2_C5.2_[C-2T]_[T-1C]_H5.2_A5.1_F5.1_T5.2_[T11A]_[A12T] (ssRNA)
RNA: B1 RNA with C28U, A29C, G31A, G40A
B6: Id_ii_S2_P5E.2_K5.1_C5.2_[T-1A]_H5.1_A5.1_F5.1_T5.2_[T11A]_[A12T] (ssRNA)
RNA: B1 RNA with G40A
B7: Id_ii_S2_P5E.2_K5.1_C5.2_H5.1_A5.1_F5.1_T5.2_[A12T] (ssRNA)
RNA: B1 RNA with A29U, G40U
B8: Id_ii_S2_P5E.2_K5.1_C5.2_H5.1_A5.1_F5.1_T5.2_[T11A]_[A12C] (ssRNA)
RNA: B1 RNA with A29U, G40A, U41C
B9: Id_ii_S2_P5E.2_K5.1_C5.2_H5.1_A5.1_F5.1_T5.2_[T11G]_[A12C] (ssRNA)
RNA: B1 RNA with A29U, U41C
B10: Id_ii_S2_P5E.3_K5.2_C5.2_[C-2G]_[T-1C]_H5.2_A5.1_F5.1_T5.2_[T11C] (ssRNA)
RNA: B1 RNA with C28G, A29C, G31A, G40C, U41A
B11: Id_ii_S2_P5E.3_K5.2_C5.2_[C-2T]_[T-1C]_H5.2_A5.1_F5.1_T5.2_[T11A]_[A12G] (ssRNA)
RNA: B1 RNA with C28U, A29C, G31A, G40A, U41G
B12: Id_ii_S2_P5E.3_K5.2_C5.2_[C-2G]_H5.2_A5.1_F5.1_T5.2_[T11C]_[A12G] (ssRNA)
RNA: B1 RNA with C28G, A29U, G31A, G40C, U41G
B13: Id_ii_S2_P5E.3_K5.2_C5.2_[C-2T]_[T-1G]_H5.2_A5.1_F5.1_T5.2_[A12T] (ssRNA)
RNA: B1 RNA with C28U, A29G, G31A, G40U
B14: Id_ii_S2_P5E.3_K5.2_C5.2_[C-2T]_[T-1A]_H5.2_A5.1_F5.1_T5.2_[T11C] (ssRNA)
RNA: B1 RNA with C28U, G31A, G40C, U41A
B15: Id_ii_S2_P5E.3_K5.2_C5.2_[C-2G]_H5.2_A5.1_F5.1_T5.2_[T11G]_[A12T] (ssRNA)
RNA: B1 RNA with C28G, A29U, G31A
B16: Id_ii_S2_P5E.3_K5.2_C5.2_[C-2G]_H5.2_A5.1_F5.1_T5.2_[A12T] (ssRNA)
RNA: B1 RNA with C28G, A29U, G31A, G40U
B17: Id_ii_S2_P5E.3_K5.2_C5.2_[C-2T]_[T-1C]_H5.2_A5.1_F5.1_T5.2_[T11A]_[A12C] (ssRNA)
RNA: B1 RNA with C28U, A29C, G31A, G40A, U41C
B18: Id_ii_S2_P5E.3_K5.2_C5.2_[C-2T]_[T-1C]_H5.2_A5.1_F5.1_T5.2_[T11A] (ssRNA)
RNA: B1 RNA with C28U, A29C, G31A, G40A, U41A
B19: Id_ii_S2_P5E.3_K5.2_C5.2_[C-2G]_[T-1C]_H5.2_A5.1_F5.1_T5.2_[T11C]_[A12G] (ssRNA)
RNA: B1 RNA with C28G, A29C, G31A, G40C, U41G
B20: Id_ii_S2_P5E.2_K5.1_C5.2_H5.1_A5.1_F5.1_T5.2_[T11A]_[A12T] (ssRNA)
RNA: B1 RNA with A29U, G40A
B21: Id_ii_S2_P5E.3_K5.2_C5.2_[C-2T]_[T-1G]_H5.2_A5.1_F5.1_T5.2_[T11A] (ssRNA)
RNA: B1 RNA with C28U, A29G, G31A, G40A, U41A
B22: Id_ii_S2_P5E.3_K5.2_C5.2_[C-2G]_[T-1C]_H5.2_A5.1_F5.1_T5.2_[T11A] (ssRNA)
RNA: B1 RNA with C28G, A29C, G31A, G40A, U41A
B23: Id_ii_S2_P5E.3_K5.2_C5.2_[C-2G]_[T-1C]_H5.2_A5.1_F5.1_T5.2_[T11A]_[A12C] (ssRNA)
RNA: B1 RNA with C28G, A29C, G31A, G40A, U41C
B24: Id_ii_S2_P5E.3_K5.2_C5.2_[C-2G]_[T-1C]_H5.2_A5.1_F5.1_T5.2_[T11C]_[A12C] (ssRNA)
RNA: B1 RNA with C28G, A29C, G31A, G40C, U41C
B25: Id_ii_S2_P5E.3_K5.2_C5.2_[C-2T]_[T-1C]_H5.2_A5.1_F5.1_T5.2_[T11C]_[A12T] (ssRNA)
RNA: B1 RNA with C28U, A29C, G31A, G40C
B26: Id_ii_S2_P5E.2_K5.1_C5.2_[T-1A]_H5.1_A5.1_F5.1_T5.2_[A12C] (ssRNA)
RNA: B1 RNA with G40U, U41C
B27: Id_ii_S2_P5E.3_K5.2_C5.2_[C-2G]_[T-1C]_H5.2_A5.1_F5.1_T5.2_[T11C]_[A12T] (ssRNA)
RNA: B1 RNA with C28G, A29C, G31A, G40C
B28: Id_ii_S2_P5E.3_K5.2_C5.2_[C-2T]_[T-1A]_H5.2_A5.1_F5.1_T5.2_[T11C]_[A12G] (ssRNA)
RNA: B1 RNA with C28U, G31A, G40C, U41G
B29: Id_ii_S2_P5E.2_K5.1_C5.2_H5.1_A5.1_F5.1_T5.2_[T11A] (ssRNA)
RNA: B1 RNA with A29U, G40A, U41A
B30: Id_ii_S2_P5E.3_K5.2_C5.2_[C-2T]_[T-1G]_H5.2_A5.1_F5.1_T5.2_[T11G]_[A12C] (ssRNA)
RNA: B1 RNA with C28U, A29G, G31A, U41C
B31: Id_ii_S2_P5E.3_K5.2_C5.2_[C-2T]_[T-1C]_H5.2_A5.1_F5.1_T5.2_[T11C]_[A12G] (ssRNA)
RNA: B1 RNA with C28U, A29C, G31A, G40C, U41G
B32: Id_ii_S2_P5E.3_K5.2_C5.2_[C-2T]_[T-1A]_H5.2_A5.1_F5.1_T5.2_[T11G]_[A12T] (ssRNA)
RNA: B1 RNA with C28U, G31A
B33: Id_ii_S2_P5E.3_K5.2_C5.2_[C-2T]_[T-1G]_H5.2_A5.1_F5.1_T5.2_[A12C] (ssRNA)
RNA: B1 RNA with C28U, A29G, G31A, G40U, U41C
B34: Id_ii_S2_P5E.3_K5.2_C5.2_[C-2G]_[T-1C]_H5.2_A5.1_F5.1_T5.2_[T11A]_[A12T] (ssRNA)
RNA: B1 RNA with C28G, A29C, G31A, G40A
B35: Id_ii_S2_P5E.3_K5.2_C5.2_[C-2T]_[T-1G]_H5.2_A5.1_F5.1_T5.2_[T11A]_[A12C] (ssRNA)
RNA: B1 RNA with C28U, A29G, G31A, G40A, U41C
B36: Id_ii_S2_P5E.3_K5.2_C5.2_[C-2G]_H5.2_A5.1_F5.1_T5.2_[T11C]_[A12C] (ssRNA)
RNA: B1 RNA with C28G, A29U, G31A, G40C, U41C
B37: Id_ii_S2_P5E.3_K5.2_C5.2_[C-2T]_[T-1C]_H5.2_A5.1_F5.1_T5.2_[A12T] (ssRNA)
RNA: B1 RNA with C28U, A29C, G31A, G40U
B38: Id_ii_S2_P5E.3_K5.2_C5.2_[C-2G]_H5.2_A5.1_F5.1_T5.2_[T11C]_[A12T] (ssRNA)
RNA: B1 RNA with C28G, A29U, G31A, G40C
B39: Id_ii_S2_P5E.3_K5.2_C5.2_[C-2G]_[T-1C]_H5.2_A5.1_F5.1_T5.2_[A12C] (ssRNA)
RNA: B1 RNA with C28G, A29C, G31A, G40U, U41C
B40: Id_ii_S2_P5E.3_K5.2_C5.2_[C-2G]_H5.2_A5.1_F5.1_T5.2_[T11A] (ssRNA)
RNA: B1 RNA with C28G, A29U, G31A, G40A, U41A
B41: Id_ii_S2_P5E.3_K5.2_C5.2_[C-2T]_[T-1C]_H5.2_A5.1_F5.1_T5.2_[T11C] (ssRNA)
RNA: B1 RNA with C28U, A29C, G31A, G40C, U41A
B42: Id_ii_S2_P5E.2_K5.1_C5.2_[T-1A]_H5.1_A5.1_F5.1_T5.2_[T11A]_[A12C] (ssRNA)
RNA: B1 RNA with G40A, U41C
B43: Id_ii_S2_P5E.3_K5.2_C5.2_[C-2T]_[T-1G]_H5.2_A5.1_F5.1_T5.2_[T11A]_[A12T] (ssRNA)
RNA: B1 RNA with C28U, A29G, G31A, G40A
B44: Id_ii_S2_P5E.3_K5.2_C5.2_[C-2T]_[T-1G]_H5.2_A5.1_F5.1_T5.2_[T11G]_[A12T] (ssRNA)
RNA: B1 RNA with C28U, A29G, G31A
B45: Id_ii_S2_P5E.3_K5.2_C5.2_[C-2T]_[T-1A]_H5.2_A5.1_F5.1_T5.2_[T11C]_[A12T] (ssRNA)
RNA: B1 RNA with C28U, G31A, G40C
B46: Id_ii_S2_P5E.2_K5.1_C5.2_[T-1A]_H5.1_A5.1_F5.1_T5.2_[T11A]_[A12G] (ssRNA)
RNA: B1 RNA with G40A, U41G
B47: Id_ii_S2_P5E.2_K5.1_C5.2_[T-1A]_H5.1_A5.1_F5.1_T5.2_[A12T] (ssRNA)
RNA: B1 RNA with G40U
B48: Id_ii_S2_P5E.3_K5.2_C5.2_[C-2G]_H5.2_A5.1_F5.1_T5.2_[A12C] (ssRNA)
RNA: B1 RNA with C28G, A29U, G31A, G40U, U41C

biological target: T1, PUF4 RNA-binding domain; test: Mg; RNA-MaP; 20 mM Na-HEPES pH 7.4, 30 mM KOAc, 0.75 mM MgCl2, 0.1% Tween-20, 5% glycerol, 0.1 mg/mL BSA, 2 mM DTT; 25 C; 0.0125-409.6 nM protein; details: tags: N-His6-TEV cleaved; C-SNAP kept, Cy3B-labelled; label: tethered on chip by stalled RNA polymerase

Binder	Kd
UCUCUUUGUAUUGGUAUCUCUU (ssRNA) [Ic_S1_P5E.1_K5.1_C5.1_H5.1_A5.1_[A7G]_F5.1_[T8G]_T5.1]	37.5 nM
UCUCUUUGUAUAAAUAUCUCUU (ssRNA) [Ib_S1_P5E.1_K5.1_C5.1_H5.1_A5.1_[T6A]_F5.1_[T8A]_T5.1]	11.7 nM
B1	2.92 nM
B2	65.6 nM
B3	92.5 nM
B4	13.9 nM
B5	149 nM
B6	4.3 nM
B7	1.19 nM
B8	4.41 nM
B9	1.71 nM
B10	546 nM
B11	> 2300 nM
B12	68.5 nM
B13	0.297 nM
B14	14.5 nM
B15	16.7 nM
B16	11.7 nM
B17	94.7 nM
B18	220 nM
B19	635 nM
B20	1.79 nM
B21	0.435 nM
B22	394 nM
B23	381 nM
B24	133 nM
B25	82.2 nM

Binder	Kd
B26	2.97 nM
B27	161 nM
B28	19.5 nM
B29	3.44 nM
B30	0.514 nM
B31	419 nM
B32	41.6 nM
B33	0.994 nM
B34	95.1 nM
B35	0.571 nM
B36	14.9 nM
B37	80.1 nM
B38	27.5 nM
B39	455 nM
B40	21.3 nM
B41	179 nM
B42	4.53 nM
B43	0.37 nM
B44	0.685 nM
B45	6.8 nM
B46	26.7 nM
B47	3.27 nM
B48	16 nM
UCUCUUUGUAUCAAUAUCUCUU (ssRNA) [Ib_S1_P5E.1_K5.1_C5.1_H5.1_A5.1_[T6C]_F5.1_[T8A]_T5.1]	13.4 nM
UCUCUUUGUAUUCGUAUCUCUU (ssRNA) [Ib_S1_P5E.1_K5.1_C5.1_H5.1_A5.1_[A7C]_F5.1_[T8G]_T5.1]	19.1 nM
UCUCUUUGUAUUUGUAUCUCUU (ssRNA) [Ib_S1_P5E.1_K5.1_C5.1_H5.1_A5.1_[A7T]_F5.1_[T8G]_T5.1]	10.1 nM
